Test results taken from publication PMC7933155, “IL-23p19 and CD5 antigen-like form a possible novel heterodimeric cytokine and contribute to experimental autoimmune encephalomyelitis development” (Scientific Reports, 2021).

Target: the molecule itself
Experiment: non-reducing SDS-PAGE and western blot; culture supernatants of HEK293T cells transfected with a p19 expression vector, western blot under non-reducing conditions

B1: mouse IL-23 p19 from HEK293T cells transfected with a p19 expression vector (vector not named) (natural protein, UniProt Q9EQ14 22-196, looked up)
chain: VPRSSSPDWAQCQQLSRNLCMLAWNAHAPAGHMNLLREEEDEETKNNVPRIQCEDGCDPQGLKDNSQFCLQRIRQGLAFYKHLLDSDIFKGEPALLPDSPMEQLHTSLLGLSQLLQPEDHPRETQQMPSLSSSQQWQRPLLRSKILRSLQAFLAIAARVFAHGAATLTEPLVPTA
notes: Interleukin-23 subunit alpha (p19), mouse; source: HEK293T, transfected, in culture supernatant
  stoichiometry N: 2
